According to article PMC6391002, “Myc-induced nuclear antigen constrains a latent intestinal epithelial cell-intrinsic anthelmintic pathway” (PLoS ONE, 2019):

Assays:
L3 TM larvae = type: cell-based, Trichuris muris
Experimental: Synthetic reduced (r-)Defa1, r-Defa2, r-Defa4, r-Defa5 and r-Defa6, r-Defa20, r-Defa21, r-Defa23 and r-Defa24 were purchased from Medical and Biological Laboratories Co., Ltd. (Nagoya, japan) and stored at -30°C until use. Three pairs of disulfide bonds were introduced into synthetic Defa1 and Defa4 (Medical and Biological Laboratories Co., Ltd., Nagoya, japan) by air oxidation as described previously. Using reverse-phase high-performance liquid chromatography (RP-HPLC) reaction mixtures were applied to C-18 columns (SepaxHP-C18, 4.6 x 150mm, […]; Sepax Technologies, Newark, DE, USA) in 0.1% trifluoroacetic acid with an 18–36% acetonitrile gradient developed over 30min at 1ml/min. […] Disulfide bond status of Defas was evaluated by acid-urea PAGE and MALDI-TOF MS (Voyager-DE PRO; Applied Biosystems, Carlsbad, Calif., USA) as described previously. […]
Supplementary file pone.0211244.s012.pdf: S12 Fig Cytotoxic activity of α-defensins toward L3 TM larvae. Cytotoxic activity of reduced (r-) α-defensins 5, 20, 21, 23 and 24 against L3 TM larvae was measured by lactate dehydrogenase release assay. […]
Cytotoxic activity of reduced (r-) α-defensins 1, 2, 4, 5 and 6 against L3 TM larvae was measured by lactate dehydrogenase release assay. […]
Cytotoxic activity of reduced (r-) and oxidized (o-) α-defensins 1 and 4 against L3 TM larvae was measured by lactate dehydrogenase release assay. […]

[1] = test system: LPS; macrophage production of TNF; conditions: reduced peptide; ref [27]; cited from earlier work
Source text: Given the prominence of α-defensin and α-defensin-related genes in the Mina genetic perturbation signature we considered whether they might contribute to the IEC-intrinsic roles of Mina in response to TM infection. Upregulation of α-defensins in Mina^ΔIEC mice could promote accelerated TM expulsion via multiple non-mutually exclusive mechanisms. First, it is well established that α-defensins can shape commensal microbiota diversity. Thus, α-defensins may act indirectly by altering commensal microbiota diversity, thereby eliminating niches essential for, or creating ones hostile toward, ...

Molecule | cytotoxicity against L3 TM larvae after oxidation of the peptide (oxidized, o-, form with three disulfide bonds), S14 Fig (L3 TM larvae) | LPS neutralization [1] | macrophage production of TNF [1]
Defa1: Synthetic reduced mouse α-defensin 1 peptide purchased from Medical and Biological Laboratories (LRDLVCYCRSRGCKGRERMNGTCRKGHLLYTLCCR; Alpha-defensin 1 reduced; UniProt P11477 59-93, looked up) | abolished by oxidation |  | 
HD5: Reduced human enteric defensin 5, literature result (peptide, UniProt Q01523 20-94, looked up, Defensin-5 reduced form, Reduced human enteric defensin 5, literature result) Defensin alpha 5: ESLQERADEATTQKQSGEDNQDLAISFAGNGLSALRTSGSQARATCYCRTGRCATRESLSGVCEISGRLYRLCCR |  | can neutralize LPS | suppress
